This assay has as its target T1, recombinant full-length human PUMA (residue 1-193) (human, UniProt Q9BXH1 1-193).
T1 construct: Expressed as a GST fusion from pGEX-TEV (TEV site present); also called PUMA protein
T1 sequence (looked up): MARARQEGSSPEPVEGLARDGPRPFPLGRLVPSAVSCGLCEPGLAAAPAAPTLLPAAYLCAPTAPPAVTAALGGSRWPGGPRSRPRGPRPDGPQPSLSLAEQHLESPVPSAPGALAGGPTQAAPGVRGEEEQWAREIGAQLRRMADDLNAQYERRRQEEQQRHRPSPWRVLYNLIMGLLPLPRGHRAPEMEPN
In words: ELISA; PAK1 recombinant protein immobilised on a 96-well plate with 0.5% paraformaldehyde; chemicals (25 or 50 uM) added, then PUMA protein, 2 hr; detected with anti-PUMA antibody and anti-rabbit IgG-HRP, absorbance at 450 nm. The settings on record: both partners purified.

B1: GST-PAK1 N-terminal domain (residues 70-149) (domain or fragment, human, UniProt Q13153 70-149, looked up)
chain: KERPEISLPSDFEHTIHVGFDAVTGEFTGMPEQWARLLQTSNITKSEQKKNPQAVLDVLEFYNSKKTSNSQKYMSFTDKS
notes: Cloned in pGEX-TEV (pGEX-4T1 with a TEV site); pGEX vectors put GST at the N-terminus (surmised); GST is kept on agarose beads in the pull-downs; the discussion says the N-terminal region of PAK1 was used for the screening; also called PAK1 recombinant protein; N-terminal region of PAK1
Consider B1, for which the binding result was “binds”.

Source of the values: article PMC5410337, “Anti-cancer effect of novel PAK1 inhibitor via induction of PUMA-mediated cell death and p21-mediated cell cycle arrest” (Oncotarget, 2017).
